Results from patent US12332249B1, “Biomolecule detection method using diffusion ordered spectroscopy” (KUWAIT UNIVERSITY, priority 2024, dated 2025).

Key:
[1] = Hydrodynamic radius from DOSY diffusion coefficient by Stokes-Einstein equation; type: physicochemical; settings: obtained using Equation 2 (Stokes-Einstein)
Description: According to Stokes-Einstein equation mentioned below, the diffusion coefficient of solutes is directly linked to the hydrodynamic radius.
Where Rh is the hydrodynamic radius, kB is the Boltzmann constant, T is the temperature in K and η is the solution viscosity ([…] for D2O, and 30° C.) and D is the diffusion coefficient. The diffusion coefficient value is directly proportional to the temperature (T) and inversely proportional to the hydrodynamic radius. Thus, the hydrodynamic radius is related to the molecular weight, the higher the molecular weight, the larger the radius, the lower the diffusion and vice versa.

[2] = aqueous native avidin; cited from earlier work

## avidin: protein with four identical subunits, each containing one binding site for biotin; from Sigma Aldrich
[1]
  hydrodynamic radius (Rh): 22.02 Å
[2]
  hydrodynamic radius by dynamic light scattering (DLS): 26.4±0.3 Å
